Square brackets hold non-standard residues; d marks the D form. Ends that are not written are not given here. * marks the point of attachment. Palmitoyl = CCCCCCCCCCCCCCCC(=O)*
Assays:
[1] = biological target: T1, CXCR4 receptor (human, UniProt P61073 1-352); experiment: cell-based or functional assay
[2] = biological target: T1, CXCR4 receptor; experiment: cell-based or functional assay; remark: listed apart in the source

T1 sequence (P61073 whole entry): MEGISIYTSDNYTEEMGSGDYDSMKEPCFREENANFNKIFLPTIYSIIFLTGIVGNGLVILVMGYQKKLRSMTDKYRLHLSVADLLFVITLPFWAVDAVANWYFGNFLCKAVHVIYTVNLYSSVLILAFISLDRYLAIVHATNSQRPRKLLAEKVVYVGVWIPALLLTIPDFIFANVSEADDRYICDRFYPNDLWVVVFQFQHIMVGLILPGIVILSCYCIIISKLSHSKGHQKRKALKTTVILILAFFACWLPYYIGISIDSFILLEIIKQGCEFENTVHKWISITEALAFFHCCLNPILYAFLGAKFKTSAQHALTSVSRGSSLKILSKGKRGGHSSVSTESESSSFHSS

Row | Binder | IC50 (nM), calcium flux, CCRF-CEM [1] [nM] | AUC (% of vehicle), chemotaxis, CEM, 1.0 uM [2] | Max (% of vehicle), chemotaxis, CEM, 1.0 uM [2] | Peak Ratio, chemotaxis, CEM, 1.0 uM [2]
1 | Palmitoyl-AGYQKKLRSMTDKYRL-NH2 (SMILES CCCCCCCCCCCCCCCC(=O)N[C@@H](C)C(=O)NCC(=O)N[C@@H](Cc1ccc(O)cc1)C(=O)N[C@@H](CCC(N)=O)C(=O)N[C@@H](CCCCN)C(=O)N[C@@H](CCCCN)C(=O)N[C@@H](CC(C)C)C(=O)N[C@@H](CCCNC(=N)N)C(=O)N[C@@H](CO)C(=O)N[C@@H](CCSC)C(=O)N[C@H](C(=O)N[C@@H](CC(=O)O)C(=O)N[C@@H](CCCCN)C(=O)N[C@@H](Cc1ccc(O)cc1)C(=O)N[C@@H](CCCNC(=N)N)C(=O)N[C@@H](CC(C)C)C(N)=O)[C@@H](C)O) [CXCR4 i1 loop compound 129] | 197 | – | – | –
2 | Palmitoyl-MGYQKKLRSMTDKARL-NH2 (SMILES CCCCCCCCCCCCCCCC(=O)N[C@@H](CCSC)C(=O)NCC(=O)N[C@@H](Cc1ccc(O)cc1)C(=O)N[C@@H](CCC(N)=O)C(=O)N[C@@H](CCCCN)C(=O)N[C@@H](CCCCN)C(=O)N[C@@H](CC(C)C)C(=O)N[C@@H](CCCNC(=N)N)C(=O)N[C@@H](CO)C(=O)N[C@@H](CCSC)C(=O)N[C@H](C(=O)N[C@@H](CC(=O)O)C(=O)N[C@@H](CCCCN)C(=O)N[C@@H](C)C(=O)N[C@@H](CCCNC(=N)N)C(=O)N[C@@H](CC(C)C)C(N)=O)[C@@H](C)O) [CXCR4 i1 loop compound 151] | > 10000 | – | – | –
3 | Palmitoyl-MGYQKKLRSMTDKY[dR]L-NH2 [CXCR4 i1 loop compound 160] | 5730 | – | – | –
4 | Palmitoyl-MGYQKKLRSMTAKYRL-NH2 (SMILES CCCCCCCCCCCCCCCC(=O)N[C@@H](CCSC)C(=O)NCC(=O)N[C@@H](Cc1ccc(O)cc1)C(=O)N[C@@H](CCC(N)=O)C(=O)N[C@@H](CCCCN)C(=O)N[C@@H](CCCCN)C(=O)N[C@@H](CC(C)C)C(=O)N[C@@H](CCCNC(=N)N)C(=O)N[C@@H](CO)C(=O)N[C@@H](CCSC)C(=O)N[C@H](C(=O)N[C@@H](C)C(=O)N[C@@H](CCCCN)C(=O)N[C@@H](Cc1ccc(O)cc1)C(=O)N[C@@H](CCCNC(=N)N)C(=O)N[C@@H](CC(C)C)C(N)=O)[C@@H](C)O) [CXCR4 i1 loop compound 149] | 126 | – | – | –
5 | Palmitoyl-MGYQKKLRSATDKYRL-NH2 (SMILES CCCCCCCCCCCCCCCC(=O)N[C@@H](CCSC)C(=O)NCC(=O)N[C@@H](Cc1ccc(O)cc1)C(=O)N[C@@H](CCC(N)=O)C(=O)N[C@@H](CCCCN)C(=O)N[C@@H](CCCCN)C(=O)N[C@@H](CC(C)C)C(=O)N[C@@H](CCCNC(=N)N)C(=O)N[C@@H](CO)C(=O)N[C@@H](C)C(=O)N[C@H](C(=O)N[C@@H](CC(=O)O)C(=O)N[C@@H](CCCCN)C(=O)N[C@@H](Cc1ccc(O)cc1)C(=O)N[C@@H](CCCNC(=N)N)C(=O)N[C@@H](CC(C)C)C(N)=O)[C@@H](C)O) [CXCR4 i1 loop compound 147] | 54 | – | – | –
6 | Palmitoyl-MGYQKKLRSMTDKYRA-NH2 (SMILES CCCCCCCCCCCCCCCC(=O)N[C@@H](CCSC)C(=O)NCC(=O)N[C@@H](Cc1ccc(O)cc1)C(=O)N[C@@H](CCC(N)=O)C(=O)N[C@@H](CCCCN)C(=O)N[C@@H](CCCCN)C(=O)N[C@@H](CC(C)C)C(=O)N[C@@H](CCCNC(=N)N)C(=O)N[C@@H](CO)C(=O)N[C@@H](CCSC)C(=O)N[C@H](C(=O)N[C@@H](CC(=O)O)C(=O)N[C@@H](CCCCN)C(=O)N[C@@H](Cc1ccc(O)cc1)C(=O)N[C@@H](CCCNC(=N)N)C(=O)N[C@@H](C)C(N)=O)[C@@H](C)O) [CXCR4 i1 loop compound 153] | > 10000 | – | – | –
7 | Palmitoyl-MGYQKKLRSMADKYRL-NH2 (SMILES CCCCCCCCCCCCCCCC(=O)N[C@@H](CCSC)C(=O)NCC(=O)N[C@@H](Cc1ccc(O)cc1)C(=O)N[C@@H](CCC(N)=O)C(=O)N[C@@H](CCCCN)C(=O)N[C@@H](CCCCN)C(=O)N[C@@H](CC(C)C)C(=O)N[C@@H](CCCNC(=N)N)C(=O)N[C@@H](CO)C(=O)N[C@@H](CCSC)C(=O)N[C@@H](C)C(=O)N[C@@H](CC(=O)O)C(=O)N[C@@H](CCCCN)C(=O)N[C@@H](Cc1ccc(O)cc1)C(=O)N[C@@H](CCCNC(=N)N)C(=O)N[C@@H](CC(C)C)C(N)=O) [CXCR4 i1 loop compound 148] | 298 | – | – | –
8 | Palmitoyl-IIISKLSHSKGHQKRKALKT (not fully specified (C-terminus); also: dual lipid, second lipid position not given here) [CXCR4 i3 loop compound 104] | – | 36.4 % of vehicle | 56.4 % of vehicle | 0.2
9 | Palmitoyl-MGYQKKLRSMTDKYAL-NH2 (SMILES CCCCCCCCCCCCCCCC(=O)N[C@@H](CCSC)C(=O)NCC(=O)N[C@@H](Cc1ccc(O)cc1)C(=O)N[C@@H](CCC(N)=O)C(=O)N[C@@H](CCCCN)C(=O)N[C@@H](CCCCN)C(=O)N[C@@H](CC(C)C)C(=O)N[C@@H](CCCNC(=N)N)C(=O)N[C@@H](CO)C(=O)N[C@@H](CCSC)C(=O)N[C@H](C(=O)N[C@@H](CC(=O)O)C(=O)N[C@@H](CCCCN)C(=O)N[C@@H](Cc1ccc(O)cc1)C(=O)N[C@@H](C)C(=O)N[C@@H](CC(C)C)C(N)=O)[C@@H](C)O) [CXCR4 i1 loop compound 152] | > 10000 | – | – | –
10 | Palmitoyl-MGYQKKLRSMTDK[dY]RL-NH2 [CXCR4 i1 loop compound 161] | > 10000 | – | – | –
11 | IIISKLSHSKGHQKRKALKT-NH2 (not fully specified (N-terminus); also: dual lipid, backbone lipid not given here) [CXCR4 i3 loop compound 103] | – | 26.3 % of vehicle | 24.4 % of vehicle | 1
12 | Palmitoyl-MGYQKKLRAMTDKYRL-NH2 (SMILES CCCCCCCCCCCCCCCC(=O)N[C@@H](CCSC)C(=O)NCC(=O)N[C@@H](Cc1ccc(O)cc1)C(=O)N[C@@H](CCC(N)=O)C(=O)N[C@@H](CCCCN)C(=O)N[C@@H](CCCCN)C(=O)N[C@@H](CC(C)C)C(=O)N[C@@H](CCCNC(=N)N)C(=O)N[C@@H](C)C(=O)N[C@@H](CCSC)C(=O)N[C@H](C(=O)N[C@@H](CC(=O)O)C(=O)N[C@@H](CCCCN)C(=O)N[C@@H](Cc1ccc(O)cc1)C(=O)N[C@@H](CCCNC(=N)N)C(=O)N[C@@H](CC(C)C)C(N)=O)[C@@H](C)O) [CXCR4 i1 loop compound 146] | 170 | – | – | –
13 | Palmitoyl-MGYQKKLRSMTDKYR[dL]-NH2 [CXCR4 i1 loop compound 159] | > 10000 | – | – | –
14 | Palmitoyl-SKLSHSKGHQKRKALK-NH2 (SMILES CCCCCCCCCCCCCCCC(=O)N[C@@H](CO)C(=O)N[C@@H](CCCCN)C(=O)N[C@@H](CC(C)C)C(=O)N[C@@H](CO)C(=O)N[C@@H](Cc1c[nH]cn1)C(=O)N[C@@H](CO)C(=O)N[C@@H](CCCCN)C(=O)NCC(=O)N[C@@H](Cc1c[nH]cn1)C(=O)N[C@@H](CCC(N)=O)C(=O)N[C@@H](CCCCN)C(=O)N[C@@H](CCCNC(=N)N)C(=O)N[C@@H](CCCCN)C(=O)N[C@@H](C)C(=O)N[C@@H](CC(C)C)C(=O)N[C@@H](CCCCN)C(N)=O) [CXCR4 i3 loop compound 101] | – | 75.5 % of vehicle | 74.9 % of vehicle | 1
15 | KLSHSKGHQKRKALKTTVIL-NH2 (not fully specified (N-terminus); also: dual lipid, backbone lipid not given here) [CXCR4 i3 loop compound 105] | – | 23.8 % of vehicle | 42.9 % of vehicle | 0.2
16 | Palmitoyl-HSKGHQKRKALKTTVI-NH2 (SMILES CCCCCCCCCCCCCCCC(=O)N[C@@H](Cc1c[nH]cn1)C(=O)N[C@@H](CO)C(=O)N[C@@H](CCCCN)C(=O)NCC(=O)N[C@@H](Cc1c[nH]cn1)C(=O)N[C@@H](CCC(N)=O)C(=O)N[C@@H](CCCCN)C(=O)N[C@@H](CCCNC(=N)N)C(=O)N[C@@H](CCCCN)C(=O)N[C@@H](C)C(=O)N[C@@H](CC(C)C)C(=O)N[C@@H](CCCCN)C(=O)N[C@H](C(=O)N[C@H](C(=O)N[C@H](C(=O)N[C@H](C(N)=O)[C@@H](C)CC)C(C)C)[C@@H](C)O)[C@@H](C)O) [CXCR4 i3 loop compound 100] | – | 49.3 % of vehicle | 49.8 % of vehicle | 0.04
17 | Palmitoyl-HSKGHQKRKALKTTV-NH2 (SMILES CCCCCCCCCCCCCCCC(=O)N[C@@H](Cc1c[nH]cn1)C(=O)N[C@@H](CO)C(=O)N[C@@H](CCCCN)C(=O)NCC(=O)N[C@@H](Cc1c[nH]cn1)C(=O)N[C@@H](CCC(N)=O)C(=O)N[C@@H](CCCCN)C(=O)N[C@@H](CCCNC(=N)N)C(=O)N[C@@H](CCCCN)C(=O)N[C@@H](C)C(=O)N[C@@H](CC(C)C)C(=O)N[C@@H](CCCCN)C(=O)N[C@H](C(=O)N[C@H](C(=O)N[C@H](C(N)=O)C(C)C)[C@@H](C)O)[C@@H](C)O) [CXCR4 i3 loop compound 99] | – | 45 % of vehicle | 64.5 % of vehicle | 0.2
18 | Palmitoyl-MGYQKKLRSMTDAYRL-NH2 (SMILES CCCCCCCCCCCCCCCC(=O)N[C@@H](CCSC)C(=O)NCC(=O)N[C@@H](Cc1ccc(O)cc1)C(=O)N[C@@H](CCC(N)=O)C(=O)N[C@@H](CCCCN)C(=O)N[C@@H](CCCCN)C(=O)N[C@@H](CC(C)C)C(=O)N[C@@H](CCCNC(=N)N)C(=O)N[C@@H](CO)C(=O)N[C@@H](CCSC)C(=O)N[C@H](C(=O)N[C@@H](CC(=O)O)C(=O)N[C@@H](C)C(=O)N[C@@H](Cc1ccc(O)cc1)C(=O)N[C@@H](CCCNC(=N)N)C(=O)N[C@@H](CC(C)C)C(N)=O)[C@@H](C)O) [CXCR4 i1 loop compound 150] | 313 | – | – | –
